# Where two headings read alike, the source gives them in different places.
# Key:
# [1] = molecular target: microtubules polymerised from porcine tubulin (porcine) (UniProt P02550); assay: FRAP
# [2] = molecular target: microtubules polymerised from porcine tubulin (porcine) (UniProt P02550); assay: FRAP; remark: listed apart in the source
substance,measurement,setting,value
"Anillin-GFP (full-length human anillin, isoform 2, 1087 amino acids) (from UniProt Q9NQW6-2 1-1087) (natural protein)",koff,[1],0.26 s⁻¹
same,koff,[2],1.07 s⁻¹
